Experimental data from article PMC6308003, “Nitric Oxide Production from Nitrite Reduction and Hydroxylamine Oxidation by Copper-containing Dissimilatory Nitrite Reductase (NirK) from the Aerobic Ammonia-oxidizing Archaeon, Nitrososphaera viennensis” (Microbes and Environments, 2018).

Tests used:
purified protein = substrate: O=NO; assay: purified protein; assay type: biochemical, Nitrososphaera viennensis; settings: anoxic, 0.5 mM benzyl viologen, 0.24 mM dithionite, 20 mM phosphate pH 6.5, 25°C, labelled compound
[1] = substrate: NO; assay: colorimetric NH2OH consumption; assay type: biochemical, Nitrososphaera viennensis; settings: aerobic, dissolved O2 as oxidant, pH 7.5, 30°C
From the text: colorimetric NH2OH consumption on Ns. viennensis NirK

B1: Ns. viennensis NirK (Nitrososphaera viennensis EN76) (protein)
chain: APTGVTRHYTLIANEMEVQVAPDNALHPGGIKYNAMVFNGTIPGPVMASNAGDTVEITLKNEGKQIHSIDFHAAIGPSQVLSGNIAAGESKTWTFNTPNSGAFMYHCGADALNGVWEHIANGMYGAFVVHPTNEAPAKEFYVAFGEIYNSADGGLFVGANGTGSFDIMKFATEQPDLILTNGMAHRYVPAIGQSVKLDLNANATVFQVKPGELTRWYILAPGPNEGVSFHFISGQIDVRDGSFKTRNMAPVRNEETWWIPVGSASVIESVFPEEGLYVGVDHNMAHVLRGGAFAVLATNNSTADDVPPEAWVPSKAWLNEHAEMGGSMMGGSAGNNATSGGNTTSG
notes: signal peptide Met1-Ala24 removed, 6xHis tag (pCold I), E. coli BL21(DE3), Cu-reconstituted
**Q.** How did the Km (purified protein) turn out when B1 was run?
**A.** 287 µM

**Q.** What about the kcat (purified protein) of the same protein?
**A.** 3.1 s⁻¹

**Q.** And the Km [1]?
**A.** 97 µM

**Q.** What about the kcat [1] of the same protein?
**A.** 0.039 s⁻¹
